“Also recorded” adds a separate entry of the source.
Legend:
[1] = test system: Ad2 major core protein precursor, pVII; experiment: Assay of adenovirus proteinase activity in crude extracts: cleavage of [35S]-methionine-labeled pVII (SDS-PAGE, autoradiography); format: biochemical, adenovirus type 2
Procedure: The expression products of the above-described Ad2 and Ad12 proteinase plasmids were tested for their ability to cleave the Ad2 major core protein precursor, pVII, in crude extracts from adenovirus-infected cells. The extracts were obtained from human cells infected with the temperature-sensitive mutant Ad2 strain, H2ts1, which has a defective proteinase. As described below, adenovirus proteinase activity requires the presence of two cofactors. […] The recombinant proteinases were also characterized by peptide sequence analysis of their amino-termini.
Bacterial extracts were incubated with the radiolabeled substrate (pVII). Samples were removed at different times and analyzed by SDS-PAGE and autoradiography. […] Appearance of the processed VII band and concurrent decrease of the precursor pVII band indicates proteinase activity. Radiolabeled proteins of Ad2 virions were run on the gel to indicate the positions of pVII, VII, and other virion components (lane a). Extracts from Ad2 -infected HeLa cells were assayed as a positive control for proteinase activity (lane b).
Adenovirus proteinase activity was monitored by the cleavage of [^35 S]-methionine-labeled major core precursor (pVII) essentially as described (Bhatti and Weber, Biochem. Biophys. Res. Comm. 81: 973-797, (1978)). The proteinase substrate was prepared from Ad2Ad2tsl-infected HeLa cells grown at 39° C. and labeled with [^35 S]-methionine (200 μCi/plate) from approximately 28 to 30 hours after infection. Labeled cultures were harvested, washed twice in Phosphate Buffered Saline (PBS), resuspended in 1.0 ml of 10 mM sodium phosphate buffer, pH 7.4, per plate, and sonicated for 40 seconds using a water-cooled sonicator horn (Branson Sonic Power Co., Danbury, Conn.). The extract was then centrifuged at 12,000×g for 10 minutes, and the pellet was resuspended in 10 mM phosphate buffer.
Extracts of Ad-infected cells, harvested 40 hours after infection at 37° C. were used as a source of viral proteinase. Harvested cultures were washed twice with PBS, resuspended in 10 mM phosphate buffer, frozen and thawed once, and centrifuged at 12,000×g for 10 minutes. Pellets were resuspended in 1.0 ml phosphate buffer, pH 7.4, per 10^6 infected cells and sonicated 4×10 seconds; samples were stored at -70° C. Bacterial extracts were prepared by lysozyme-EDTAtreatment of cultures harvested 2 hours after IPTG induction.
Assays were performed by mixing equal volumes of [^35 S]-labeled substrate and test extract and incubating at 37° C. At different times, 25 μl samples were removed, mixed with 25 μl of SDS Sample Buffer, heated to 90° C., and analyzed by SDS-polyacrylamide gel electrophoresis and autoradiography as described (Anderson et al., J. Virol. 12: 241-252 (1973).
Recombinant proteinase polypeptides were assayed for proteinase activity by incubating whole-cell extracts of BL21 (DE3), pT7AD23K5/BL21(DE3), and pT7AD23k6/BL21(DE3), prepared as described above, with extracts of [^35 S]-methionine-labeled Ad2 virion precursor polypeptides. Incubation of the labeled extract at 37° C. for up to 20 hours, alone or with an extract prepared from uninfected HeLa cells, produced little change in the pattern of labeled polypeptides.

HEP1DBP = experiment: Cleavage of artificial protein substrate HEP1DBP (SDS-polyacrylamide gel electrophoresis); format: biochemical; settings: incubated with HEP1DBP alone, no added cofactors
Source text: Recombinant protein substrates that resemble natural virion precursors, such as pVI, can be produced in E. coli by genetic engineering methods similar to those used for expression of recombinant adenovirus proteinase. The recombinant substrate may have an artificial leader sequence that can be removed by proteinase-mediated cleavage. The leader can be designed to aid in purification of the substrate; thus the recombinant substrate can be produced and purified much more efficiently than natural adenovirus substrates. Recombinant protein substrates also serve as prototypes of potential commercial products, showing that the adenovirus proteinase will remove an artificial leader sequence from a recombinant protein that is not related to any adenovirus protein. The first artificial protein substrate was called HEP1DBP. It consists of a 17 amino acid leader (Met-Ala-Ser-Met-Thr-Gly-His-His-His-His-His-His-Gly-Met-Ser-Gly-Gly-) (SEQ ID NO: 37) attached to the initiating methionine of the 232 amino acid DNA binding protein (DBP), of bacteriophage T7. The T7 DBP is the product of gene 2.5. The recombinant proteinase substrate is produced by induction of a pET expression plasmid called pT7HEP1DBP (also called pT7HIS2) (FIG. 7A and Example 11); the predicted sequence of the expressed substrate is given in Table 1. The leader sequence contains six consecutive histidine residues to permit purification by metal affinity chromatography in a manner analogous to purification of the adenovirus proteinase. Immediately preceding the methionine corresponding to the initiation site of the T7 DBP is the tetra-amino acid element -Met-Ser-Gly-Gly- (SEQ ID NO: 38). This segment corresponds to the proteinase recognition sequence in the adenovirus virion precursor polypeptide pVI. The size of the leader sequence was chosen so that the substrate precursor HEP1DBP, and the predicted major product after cleavage, the T7 DBP, could easily be distinguished by SDS-polyacrylamide gel electrophoresis.
(§1) When purified HEP1DBP was incubated with disrupted wild-type adenovirus 2 virions, it was cleaved, as determined from the change in its mobility during SDS-polyacrylamide gel electrophoresis. No cleavage was observed when incubation was with disrupted H2ts1 virions alone.
Plasmid pT7HEP1DBP (5346 bp) is a pET-3 derivative that expresses the […] T7 gene 2.5 protein (a single-stranded DNA binding protein) attached to a 17-amino acid leader sequence (FIG. 19). The 249-amino acid HEP1DBP polypeptide serves as an artificial substrate for the adenovirus EP; the leader peptide, MASMTGHHHHHHGMSGG- (SEQ ID NO: 37), ends with the Ad2 proteinase recognition sequence -MSGG- (SEQ ID NO: 38) [Anderson, C. […]

[2] = Solubility of bacterially expressed proteinases (10,000×g supernatant/pellet of lysed E. coli); format: physicochemical
Procedure: The 23k5 and 23k6 products were tested for solubility as an indication of protein folding. Induced bacteria were harvested and lysed with lysozyme-EDTA, and 10,000×g supernatants were prepared.
The expressed proteinase polypeptides were then tested for solubility. Induced bacteria were harvested and lysed with lysozyme-EDTA, and 10,000×g supernatants were prepared. In each case, the majority of the proteinase polypeptide was found in the 10,000×g pellet. When pellet fractions were analyzed by SDS-polyacrylamide gel electrophoresis in the absence of a reducing agent, only a small fraction of the proteinase polypeptides entered the stacking gel, showing that most of the bacterially synthesized proteinase was misfolded and crosslinked through disulfide bonds. This finding was true for both pT7AD23K5 products (23k5a and 23k5b) as well as for the 23k6 polypeptide.

[3] = test system: Ad2 proteinase (rEP protein); format: biochemical, human adenovirus type 2; settings: disrupted H2ts1 virus treated with DNase prior to the assay, plus recombinant proteinase
Source text: (§2) The nature of the proteinase cofactor(s) was pursued with the aid of the second assay, which utilizes the substrate (Leu-Arg-Gly-Gly-NH)2 -rhodamine. The design of this substrate was based on two facts. (1) It was known that the proteinase present in disrupted Ad2 virions would cleave small peptides with sequence similar to that found at natural cleavage sites in adenovirus virion precursors (Webster et al., 1989). (2) Cleavage of either tetra-peptide sequence from the substituted rhodamine substrate produces a very large increase, up to a 3500-fold, in fluorescence. Under conditions where only a small fraction of the rhodamine substrate is cleaved, the increase in fluorescence is proportional to the amount of proteinase present and to the time of incubation. Thus, the fluorescence assay provides a quantitative method for assessing proteinase activity that is more sensitive convenient and rapid than the gel electrophoresis assay.
(§3) After determining the identity of the two cofactors, reconstitution of adenovirus proteinase activity in vitro with purified components was accomplished. […] In (a), Assays in 1 ml contained 1.2 nM rEP protein, 11.9 pM Ad2 DNA and the indicated concentrations of pVI-c peptide. The rate of substrate hydrolysis is the rate in the reaction minus the rate with the rEP protein and Ad2 DNA alone which was 0.068 pmol min^-1. In (b), Assays in 1 ml contained 1.2 nM rEP protein, 36 nM pVI-c peptide and the indicated concentrations of Ad2 DNA. The rate of substrate hydrolysis is the rate in the reaction minus the rate with the rEP protein and pVI-c alone which was 2.76 pmol min^-1. The concentration of (Leu-Arg-Gly-Gly-NH)2 -rhodamine was 5 μM, and its rate of hydrolysis to Leu-Arg-Gly-Gly-NH-rhodamine was determined by measuring the increase in fluorescence every 3 minutes for 15 minutes. The pVI-c peptide was assembled in a peptide synthesizer.
(§4) Assays were performed in 400 μl of Assay Buffer (50 mM Tris-HCl, pH 7.4, 25 mM NaCl, 10 mM octylglucoside, and 1 mM dithiothreitol). The concentration of the fluorogenic substrate, (Leu-Arg-Gly-Gly-NH)2 -rhodamine was 5 μM. When present, the number of disrupted virus particles was 10^10 and the amount of recombinant proteinase was 0.12 mAU280 nm. […] After 30 minutes at 37° C., a 360 μl aliquot of the reaction was added to 340 μl of Assay Buffer minus octylglucoside, and the increase in fluorescence was measured. The excitation wavelength was 492 nm and the emission wavelength was 523 nm, both with a bandwidth of 5 nm. The change in fluorescence, ΔF, is the magnitude of the fluorescence from the sample minus the magnitude of the fluorescence from an identical solution without enzyme.
(§5) DNase-treated disrupted virus was obtained by incubating 2×10^10 disrupted virions in 20 μl containing 0.1M NaAc, pH 5.0, 5 mM MgCl2, and 55 μg/ml DNase I for 4 minutes at 25° C. Then, EDTA to 23 mM and dithiothreitol to 2.3 mM were added, and the reactions were heated at 56° C. for 1 minute to inactivate the DNase.
(§6) For the assays shown in FIG. 8, the DNase reactions were diluted by the addition of 380 μl Assay Buffer containing the substrate, the proteinase and either 2×10^10 molecules of Ad2 DNA (+) or no DNA (-). After 30 minutes at 37° C., 360 μl of the reactions were added to 340 μl Assay Buffer minus octylglucoside and the increase in fluorescence was measured. The assays in (B) and (C) were identical to those in (A) except that in (B) H2ts1 virus was added after the DNase was inactivated (i-DNase) and in (C) no Dnase was present. In (D) recombinant proteinase plus 10^10 molecules of Ad2 DNA were preincubated for 10 minutes at 37° C. before adding substrate.
(§7) .dagger. All assays contained 8.3 nM rEP protein, 98 nM pVIc peptide, and
(§8) 1 μM (Leu--Arg--Gly--Gly--NH)2rhodamine. The rate of substrate

[4] = molecular target: T1, Ad2 proteinase (rEP protein) (Human adenovirus C serotype 2, UniProt P03252); format: biochemical, human adenovirus type 2; settings: 1.2 nM rEP protein, 36 nM pVI-c peptide, no DNA, 5 μM substrate, 1 ml
T1 construct: Plasmid pT7AD23k6 contains the 204 codons of the Ad2 proteinase reading frame plus a translational termination codon; made in house; host or cells: E. coli BL21(DE3)
T1 sequence (P03252 whole entry): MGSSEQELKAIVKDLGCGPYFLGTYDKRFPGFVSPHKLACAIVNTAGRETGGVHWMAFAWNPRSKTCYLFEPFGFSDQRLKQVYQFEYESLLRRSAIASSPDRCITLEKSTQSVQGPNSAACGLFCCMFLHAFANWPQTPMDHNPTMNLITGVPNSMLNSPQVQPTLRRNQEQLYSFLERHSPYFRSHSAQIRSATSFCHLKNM
Source text: as §2, §3, §4, §5, §6, §7, §8

[5] = molecular target: T2, recombinant Ad2 proteinase (Human adenovirus C serotype 2, UniProt P03252); experiment: Cofactor activity in HEP1DBP cleavage by recombinant Ad2 proteinase; format: biochemical, human adenovirus type 2; settings: peptide mixed with recombinant Ad2 proteinase and Ad2 DNA
T2 construct: also expresses the wild-type 204-amino acid EP polypeptide; made in house; host or cells: E. coli BL21(DE3)
T2 sequence (P03252 whole entry): as above
Procedure: as §1
To determine if the Ad12 carboxy-terminal fragment of pVI functioned as the EP co-factor, the corresponding synthetic peptide was mixed with recombinant Ad2 proteinase and Ad2 DNA, and incubated with the HEP1DBP substrate.

[6] = Stability/sensitivity of the peptide cofactor; format: physicochemical; settings: boiling for 5 minutes

## 23K6: recombinant wild-type 204/203 amino acid Ad2 proteinase expressed from pT7AD23k6 in E. coli
[1]; 37° C.
  Stability of processing activity in the bacterial extracts: about 2 hours
[1]; Induced, log phase
  Activity/Conditions: Active
[1]; bacterial extract, 37° C.
  Time by which virtually all of pVII had been converted to VII: ≤ 2 hours
[1]; extracts of IPTG-induced, log phase cells
  Proteinase activity (cleavage of pVII): significant proteinase activity; also recorded: active
HEP1DBP
  Cleavage of HEP1DBP: no cleavage
[2]; incubation temperature lowered to 30° at addition of IPTG
  Part of recombinant proteinase that folds into a soluble protein: approximately half
[2]; induced bacteria lysed with lysozyme-EDTA, 10,000×g
  Solubility of expressed proteinase: majority of the proteinase was found in the insoluble pellet

## DNase
[3]
  Proteinase activity lost relative to untreated H2ts1 virus: 94%

## GVQSLHRRRCF [pVI-c peptide]
[4]
  Rate of substrate hydrolysis with the rEP protein and pVI-c alone: 2.76 pmol min^-1
[5]
  Cleavage of the HEP1DBP substrate: Rapid and complete cleavage
[6]
  Heat stability of cofactor activity: did not irreversibly denature

— patent US5935840A, “Activated recombinant adenovirus proteinases” (priority 1995, dated 1999)
